Results taken from paper PMC12248463, “Humanized scFv Molecule Specific to an Extracellular Epitope of P2X4R as Therapy for Chronic Pain Management” (Cells, 2025).

T1: human P2X4R peptide (extracellular 13-amino-acid peptide fragment of human P2X4R) (Homo sapiens, UniProt Q99571, biotinylated (position not given) where immobilised as ligand)
T1 construct: P2X purinoceptor 4, human; extracellular 13-amino-acid peptide fragment, the counterpart of rat residues 301-313 (11/13 residues identical to the rat peptide); also called human P2X4 peptide; source: synthetic peptide (GenScript)
T1 chain: RDLAGNEQRTLIK

B1: humanized P2X4R scFv HC1-LC1 (scFv, V domains shown)
VH: EVKLVESGGGLVQPGGSLRLSCATSGFTFTDYYMSWVRQPPGKALEWLGFIRNKANGYTTEYSASVKGRFTISRDNSQSILYLQMNTLRAEDSATYYCARWEGDLLYAMDYWGQGTSVTVSS
VL: DIQMTQTTSSLSASLGDRVTISCSASQGISNYLNWYQQKPDGTVKLLIYYTSSLHSGVPSRFSGSGSGTDYSLTISNLEQEDIATYYCQQYSKLPWTFGGGTKLEIK
notes: humanized VH hscFv95.HC1 (CDRs of murine mscFv95 grafted on a human framework); 15-amino-acid linker, printed as (G4S)3; humanized VL hscFv95.LC1 (CDRs of murine mscFv95 grafted on a human framework); Cloned NcoI/NotI into a pET32a-His vector; also called hscFv95.HC1 + hscFv95.LC1; source: E. coli Rosetta-gami (DE3), purified (HisTrap, SEC)
B2: humanized P2X4R scFv HC2-LC1 (scFv, V domains shown)
VH: QVQLQESGPGLVKPSQTLSLTCTTSGFTFTDYYMSWVRQAPGKGLEWIGFIRNKANGYTTEYSASVKGRFTISRDNSKNQFSLRLSSVTAADTAVYYCARWEGDLLYAMDYWGQGTTVTVSS
VL: B1 VL
notes: humanized VH hscFv95.HC2 (CDRs of murine mscFv95 grafted on a human framework); 15-amino-acid linker, printed as (G4S)3; humanized VL hscFv95.LC1, as the VL of m1; Cloned NcoI/NotI into a pET32a-His vector; also called hscFv95.HC2 + hscFv95.LC1; source: E. coli Rosetta-gami (DE3), purified (HisTrap, SEC)
B3: humanized P2X4R scFv HC3-LC3 (lead) (scFv, V domains shown)
VH: EVQLVESGGGLVQPGGSLRLSCATSGFTFTDYYMHWVRQAPGKGLEWVGFIRNKANGYTTEYSASVKGRFTISRDNSKNTLYLQMNSLRAEDTAVYYCARWEGDLLYAMDYWGQGTLVTVSS
VL: DIQMTQSPSSLSASVGDRVTITCRASQGISNYLNWYQQKPGKAPKLLIYYTSSLHSGVPSRFSGSGSGTDFTLTISSLQPEDFAYYYCQQYSKLPWTFGGGTKVEIK
notes: humanized VH hscFv95.HC3 (CDRs of murine mscFv95 grafted on a human framework); 15-amino-acid linker, printed as (G4S)3; humanized VL hscFv95.LC3, as the VL of m3; Cloned NcoI/NotI into a pET32a-His vector; Captured on HIS1K penta-His sensors in the Octet assay; also called hscFv HC3-LC3; P2X4R hscFv; source: E. coli Rosetta-gami (DE3), purified (HisTrap, SEC)
B4: humanized P2X4R scFv HC3-LC1 (scFv, V domains shown)
VH: B3 VH
VL: B1 VL
notes: humanized VH hscFv95.HC3, as the VH of m4; 15-amino-acid linker, printed as (G4S)3; humanized VL hscFv95.LC1, as the VL of m1; Cloned NcoI/NotI into a pET32a-His vector; also called hscFv95.HC3 + hscFv95.LC1; source: E. coli Rosetta-gami (DE3), purified (HisTrap, SEC)
B5: humanized P2X4R scFv HC2-LC3 (scFv, V domains shown)
VH: B2 VH
VL: B3 VL
notes: humanized VH hscFv95.HC2, as the VH of m2; 15-amino-acid linker, printed as (G4S)3; humanized VL hscFv95.LC3 (CDRs of murine mscFv95 grafted on a human framework); Cloned NcoI/NotI into a pET32a-His vector; also called hscFv95.HC2 + hscFv95.LC3; source: E. coli Rosetta-gami (DE3), purified (HisTrap, SEC)

Experiments:
[1] = target: T1, human P2X4R peptide (extracellular …); assay: ELISA; indirect ELISA, purified hscFvs on human P2X4 peptide, triplicate wells (Figure 3B); conditions: both partners purified
[2] = target: T1, human P2X4R peptide (extracellular …); assay: BLI; Octet RED384; hscFv (5 ug/mL) captured on HIS1K penta-His sensors; peptide in 7 three-fold dilutions, 1.03-250 nM; 1X KB (PBS pH 7.4, 0.02% Tween-20, 0.1% albumin, 0.05% sodium azide); association 240 s, dissociation 420 s; global 1:1 fit; conditions: both partners purified

Row | Binder | Kd [1] | Kd [2]
1 | B1 | 24 nM | 
2 | B2 | 12 nM | 
3 | B3 | 2.3 nM | 2.5 nM
4 | B4 | 4.7 nM | 
5 | B5 | 29 nM | 
